Laboratory results published in publication PMC4285296, “A complex gene locus enables xyloglucan utilization in the model saprophyte Cellvibrio japonicus” (Molecular Microbiology, 2014).
Values belong to the molecule of their own block, whether it stands above or below them.

Key:
[1] = molecular target: T1, CjBgl35A (Cellvibrio japonicus, UniProt B3PBE0); experiment: isothermal titration calorimetry; type: binding
T1 construct: gene bgl35A; native signal peptide (residues 1-36) excluded; recombinant in E. coli; pET-DEST42 construct with C-terminal tag, or modified pET28a construct with N-terminal His6 tag (crystals); model residues 37-575

[2] = molecular target: T2, CjAfc95A (Cellvibrio japonicus, UniProt B3PBE3); experiment: HPAEC-PAD, fucose release; type: biochemical; details: 25 °C; pH optimum 6.5; apparent value, substrate preparation was a two-component mixture of XLFG and XXFG
T2 construct: gene afc95A; full-length (no signal peptide predicted); pET-DEST42 construct with C-terminal tag; recombinant in E. coli BL21(DE3), IMAC purified
T2 sequence (B3PBE3 1-782): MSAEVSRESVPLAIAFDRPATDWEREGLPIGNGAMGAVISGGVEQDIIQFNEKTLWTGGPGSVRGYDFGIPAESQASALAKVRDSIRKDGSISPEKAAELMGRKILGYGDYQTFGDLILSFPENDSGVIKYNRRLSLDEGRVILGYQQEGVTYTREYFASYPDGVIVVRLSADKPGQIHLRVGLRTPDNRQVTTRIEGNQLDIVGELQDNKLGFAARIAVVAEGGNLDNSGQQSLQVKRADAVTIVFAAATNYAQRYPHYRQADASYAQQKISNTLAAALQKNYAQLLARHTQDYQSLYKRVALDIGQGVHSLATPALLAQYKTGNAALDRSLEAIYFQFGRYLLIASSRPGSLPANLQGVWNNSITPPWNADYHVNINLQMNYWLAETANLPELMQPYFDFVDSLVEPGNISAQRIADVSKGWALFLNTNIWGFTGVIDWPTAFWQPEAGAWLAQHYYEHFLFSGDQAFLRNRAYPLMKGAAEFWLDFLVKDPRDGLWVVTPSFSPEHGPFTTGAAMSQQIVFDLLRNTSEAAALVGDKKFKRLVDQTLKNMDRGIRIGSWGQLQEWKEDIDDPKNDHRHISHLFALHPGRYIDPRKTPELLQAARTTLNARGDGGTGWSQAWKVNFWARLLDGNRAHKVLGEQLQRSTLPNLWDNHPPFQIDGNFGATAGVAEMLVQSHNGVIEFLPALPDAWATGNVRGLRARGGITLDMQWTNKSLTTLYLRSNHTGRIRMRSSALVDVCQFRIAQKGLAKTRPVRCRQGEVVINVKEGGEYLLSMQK
From the text: HPAEC-PAD, fucose release on CjAfc95A

[3] = substrate: C[C@@H]1O[C@@H](Oc2ccc([N+](=O)[O-])cc2Cl)[C@@H](O)[C@H](O)[C@@H]1O; experiment: continuous chromogenic assay, 2-chloro-4-nitrophenolate release; type: biochemical, Cellvibrio japonicus; details: 25 °C, pH optimum 6.5 (citrate)
From the text: continuous chromogenic assay, 2-chloro-4-nitrophenolate release on CjAfc95A

[4] = substrate: O=[N+]([O-])c1ccc(O[C@@H]2O[C@H](CO)[C@H](O)[C@H](O)[C@H]2O)cc1; experiment: purified protein; details: 25 °C, pH optimum 5.5 (acetate)

- Kd [1]: 485 ± 42 nM
Molecule: OC[C@H]1NC[C@H](O)[C@@H](O)[C@H]1O [1-deoxygalactonojirimycin, 1,5-Dideoxy-1,5-imino-D-galactitol]

- Km [2]: 210 ± 17 µM
Molecule: C[C@@H]1O[C@@H](O[C@H]2[C@H](O[C@H]3[C@@H](OC[C@H]4O[C@@H](O[C@H]5[C@H](O)[C@@H](O)C(O)O[C@@H]5CO)[C@H](O)[C@@H](O)[C@@H]4O[C@@H]4O[C@H](CO[C@H]5OC[C@@H](O)[C@H](O)[C@H]5O[C@@H]5O[C@H](CO)[C@H](O)[C@H](O)[C@H]5O)[C@@H](O[C@@H]5O[C@H](CO[C@H]6OC[C@@H](O)[C@H](O)[C@H]6O)[C@@H](O)[C@H](O)[C@H]5O)[C@H](O)[C@H]4O)OC[C@@H](O)[C@@H]3O)O[C@H](CO)[C@H](O)[C@@H]2O)[C@@H](O)[C@H](O)[C@@H]1O (some centres unmarked) [XLFG]

B1: CjAfc95A (Cellvibrio japonicus Ueda107) (protein)
chain: MSAEVSRESVPLAIAFDRPATDWEREGLPIGNGAMGAVISGGVEQDIIQFNEKTLWTGGPGSVRGYDFGIPAESQASALAKVRDSIRKDGSISPEKAAELMGRKILGYGDYQTFGDLILSFPENDSGVIKYNRRLSLDEGRVILGYQQEGVTYTREYFASYPDGVIVVRLSADKPGQIHLRVGLRTPDNRQVTTRIEGNQLDIVGELQDNKLGFAARIAVVAEGGNLDNSGQQSLQVKRADAVTIVFAAATNYAQRYPHYRQADASYAQQKISNTLAAALQKNYAQLLARHTQDYQSLYKRVALDIGQGVHSLATPALLAQYKTGNAALDRSLEAIYFQFGRYLLIASSRPGSLPANLQGVWNNSITPPWNADYHVNINLQMNYWLAETANLPELMQPYFDFVDSLVEPGNISAQRIADVSKGWALFLNTNIWGFTGVIDWPTAFWQPEAGAWLAQHYYEHFLFSGDQAFLRNRAYPLMKGAAEFWLDFLVKDPRDGLWVVTPSFSPEHGPFTTGAAMSQQIVFDLLRNTSEAAALVGDKKFKRLVDQTLKNMDRGIRIGSWGQLQEWKEDIDDPKNDHRHISHLFALHPGRYIDPRKTPELLQAARTTLNARGDGGTGWSQAWKVNFWARLLDGNRAHKVLGEQLQRSTLPNLWDNHPPFQIDGNFGATAGVAEMLVQSHNGVIEFLPALPDAWATGNVRGLRARGGITLDMQWTNKSLTTLYLRSNHTGRIRMRSSALVDVCQFRIAQKGLAKTRPVRCRQGEVVINVKEGGEYLLSMQK
notes: full-length (no signal peptide predicted); pET-DEST42 construct with C-terminal tag; recombinant in E. coli BL21(DE3), IMAC purified
- Km [3]: 2100 ± 200 µM
- kcat [3]: 26.5 ± 1.1 s⁻¹
- kcat/Km [3]: 12900 M⁻¹ s⁻¹

B2: CjBgl35A (Cellvibrio japonicus Ueda107) (protein)
chain: APLPELLSNNGKHALMVDGAPYIILGSQTNNSSNYPDALKDVWPSMEKMGANTLSIPVAWEQIEPVEGQFDFSFVDVLLKEARQRKVRLVLLWFATWKNNAPHYAPAWVKLDNARFPRVVKEDGDTLNSLSPLGQNTLAADKKAFVELMKYLAKRDKDHTVIMVQVQNEVGTYGAVRDYSPMAQAVFNAAVPDDLIQKLQLKPGTWSQVFGRDADEFFHAYQIARYCDEVTVAGKAIKNLPMYVNVALRNPFNPGLPGQYSSGGGTDNVLHIWKAAAPNIDLIAPDIYFRDYKTVSKVLELYTRPDNALFVAEIGNDQPFARYLFPTLGKGGIGFSPFGMDDTDYTNYPLGAKVYNDETIEQFAQVYRLVNPMMREWARLSYQGQVWGVAEPLDSTTETQKIWNAEATPEEKEQHKKDRASALTQQLDLGLWDAEVTYGRPMFWVTPPEGNTPAAGGALIAQLDDNEYLVTAYKARVEFKPSQELAGKKFMIERVEEGRFEKGKWVMERVWNGDQTDWGLNFTDRPHLLRVKMASYSVQ
- Km [4]: 810 ± 50 µM
- kcat [4]: 10.1 s⁻¹
- kcat/Km [4]: 12500 M⁻¹ s⁻¹
